Test system: ArgR (arginine repressor) (Escherichia coli)
Assay: EMSA
Conditions: EMSA essentially as Burke et al. 1994 with 1 mM L-arginine; ArgR dilution buffer 20 mM Tris-HCl pH 8.2, 20 mM MgCl2, 150 mM NaCl, 5 mM DTT, 1 ug/ml BSA, 0.01% …

Substance | K half [nM]
cer 190 bp Arg-box fragment | 10
loxP 198 bp fragment (P1 putative Arg-box) | > 200

Source: paper PMC2409434
